Laboratory results as given in US20210179715A1 (Genentech, published 2021).
Where a chain is given by its changes, count along the chain named. In names and notes the source's numbering stands. Several values for one entry are separate records, joined by “and”; a condition that tells them apart may be missing. Equal entries are not always repeated. Where two headings read alike, the source gives them in different places. Each block holds one binder with its values, some of them ahead of it.

Experiments:
[1] = target: T1, human LY6G6D-Fc (human, UniProt O95868 20-104); test: BIAcore SPR; LY6G6D-Fc on chip; TDB flowed; 37 C
T1 construct: also called hu Ly6G6D; huLY6G6D; not shown: linker and Fc part
T1 sequence: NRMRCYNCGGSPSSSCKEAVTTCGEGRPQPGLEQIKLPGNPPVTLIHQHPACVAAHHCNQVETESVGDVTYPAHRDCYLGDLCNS
Experimental: TDBs comprising the anti-LY6G6D arm 20Al2.QNTv12 and the anti-CD3 38E4.v1 (left panel; produced using a two-cell-manufacturing system), 38E4.v1 MD1 (center panel; produced using a one-cell-manufacturing system), or 38E4.v1 MD4 arm (right panel; produced using a one-cell-manufacturing system) were assayed for affinity for a human Ly6G6D polypeptide (FIG. 25) using a BIAcore assay.

[2] = target: T2, 27mer human CD3 polypeptide conjugated to biotin (human, conjugated to biotin (site not stated)); test: BIAcore T200 SPR; biotin 27mer CD3 peptide on SA chip; TDB flowed; 37 C
T2 construct: The assay text says only '27mer human CD3 polypeptide'; also called HuCD3e pept biotin
T2 peptide: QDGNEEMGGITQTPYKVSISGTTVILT
Experimental: The MD1 and MD4 variants thus retained the high affinity of 38E4v1. Assays were performed using a BIAcore T200: 27mer human and cyno CD3 polypeptides were conjugated to biotin and were immobilized on a SA CM5 chip, and TDBs were flowed through at 100 μl/min at 37° C.

[3] = target: T2, 27mer human CD3 polypeptide conjugated …; test: as above
Experimental: Assays were performed using a BIAcore T200. 27mer human and cyno CD3 polypeptides were conjugated to biotin and were immobilized on a SA CM5 chip. LY6G6D TDBs were flowed through at 37° C.

[4] = target: T1, human LY6G6D-Fc; test: BIAcore SPR
Experimental: (§1) The humanized rb.20A12 variant 20A12.QNTv12, the humanized rb.6E10 variant 6E10.v114, and the anti-LY6G6D 1G4 arm were paired with the anti-CD3 38E4v1 or 40G5c arm as TDBs and tested for affinity to human and cynomolgus LY6G6D in a BIAcore® assay. Rabbit 20Al2, rabbit 6E10, and humanized 20A12.QNTv12 and 20A12.SNVv12 were additionally assayed for binding as antigen-binding fragments (Fabs). LY6G6D-Fc was directly immobilized on a chip, and TDBs were flowed through at 37° C., except for the rb6E10 Fab, which was assayed at 25° C.

[5] = target: T3, polypeptide comprising amino acids 93-104 of LY6G6D (HRDCYLGDLCNS) (human); test: co-crystal structure, 2.2 A
T3 construct: also called LY6G6D peptide
T3 peptide: HRDCYLGDLCNS
Experimental: Ten 20A12.QNTv12 Fabs were tested.

[6] = target: T1, human LY6G6D-Fc; test: BIAcore SPR; LY6G6D-Fc on chip; Fab flowed; 37 C
Experimental: as §1

[7] = target: T1, human LY6G6D-Fc; test: BIAcore SPR; LY6G6D-Fc on chip; TDB flowed; 37 C; remark: listed apart in the source
Experimental: TDBs comprising the anti-LY6G6D 20A12.QNTv12 arm and the anti-CD3 38E4.v1 arm (FIG. 24A) or 40G5C arm (FIG. 24B) were assayed for affinity for a human and cyno Ly6G6D polypeptide using a BIAcore assay. Ly6G6D-Fc was directly immobilized on the chip, and the TDB was flowed through at 37° C. Similar assays were performed for TDBs comprising the anti-LY6G6D 1G4 arm and the anti-CD3 38E4.v1 arm (FIG. 24C) or 40G5C arm (FIG. 24D).

[8] = target: T4, LY6G6D on HT55 cells (human, UniProt O95868 20-104); test: cell-based or functional assay
T4 sequence: T1 sequence

[9] = target: T1, human LY6G6D-Fc; test: BIAcore SPR; two-cell TDB
[10] = target: T5, human extracellular domain (ECD) of CD3 (human, UniProt P07766 23-126); test: BIAcore SPR; two-cell TDB
T5 construct: extracellular domain; also called huCD3
T5 sequence (P07766 23-126): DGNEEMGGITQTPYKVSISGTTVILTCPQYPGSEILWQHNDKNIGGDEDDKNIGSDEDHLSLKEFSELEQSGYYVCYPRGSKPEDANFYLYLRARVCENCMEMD

[11] = target: T6, cyno extracellular domain (ECD) of CD3 (cynomolgus monkey, UniProt Q95LI5 22-117); test: BIAcore SPR; two-cell TDB
T6 construct: extracellular domain; also called CyCD3
T6 sequence (looked up): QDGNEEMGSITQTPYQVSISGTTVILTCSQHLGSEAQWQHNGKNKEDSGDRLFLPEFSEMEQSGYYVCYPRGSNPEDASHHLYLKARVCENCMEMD

[12] = target: T1, human LY6G6D-Fc; test: BIAcore SPR; LY6G6D-Fc on chip; TDB flowed; 37 C; remark: listed apart in the source
Experimental: as §1

[13] = target: T1, human LY6G6D-Fc; test: BIAcore SPR; chimeric Fab; Ly6G6D-Fc captured on Protein A chip; 37 C
[14] = target: T3, polypeptide comprising amino acids …; test: co-crystal structure

B1: LY6G6D TDB assembled using a one-cell system comprising the anti-LY6G6D 20A12.QNTv12 arm (one-cell) and the anti-CD3 38E4v1 MD4 arm (bispecific antibody, V domains shown)
VH 1: EVQLLESGGGLVQPGGSLRLSCAASGFDFVNNAMIWVREAPGKGLEWVSALSFADNTAYYATWASGRFTISRDSSKTTVYLQMNSLRAEDTAVYYCMRGDLWGPGTLVTVSS
VL 1: DIQMTQSPSTLSASVGDRVTITCQASESITRYLNWYQKKPGKAPKLLIYDASKLPSGVPSRFSGSGSGTEFTLTISSLQPDDFATYYCQSTSFRGRSYQNTFGGGTKVEIK
VH 2: EVQLVQSGAEVKKPGASVKVSCKASGFTFTSYYIHWVRKAPGQGLEWIGWIYPENDNTKYNEKFKDRVTITADTSTSTAYLELSSLRSEDTAVYYCARDGYSRYYFDYWGQGTLVTVSS
VL 2: DIVMTQSPDSLAVSLGERATINCKSSQSLLNSRTRKNYLAWYQEKPGQPPKLLIYWASTRKSGVPDRFSGSGSGTDFTLTISSLQAEDVAVYYCKQSFILRTFGQGTKVEIK
notes: also called 20A12.QNTv12.MD4/38E4v1; MD4 one-cell
- Kd [1]: 1.89 nM
- koff [1]: 0.000559 s⁻¹
- kon [1]: 296000 M⁻¹ s⁻¹
- Kd [2]: 18.8 nM and 18.6 nM
- koff [2]: 0.0544 s⁻¹ and 0.0495 s⁻¹
- kon [2]: 2.89e+06 M⁻¹ s⁻¹ and 2.66e+06 M⁻¹ s⁻¹
- Kd [3]: 18.7 nM

B4: LY6G6D TDB assembled using a one-cell system comprising the anti-LY6G6D 20A12.QNTv12 arm (one-cell) and the anti-CD3 38E4v1 (WT) arm (bispecific antibody, V domains shown)
VH 1: B1 VH 1
VL 1: B1 VL 1
VH 2: B1 VH 2
VL 2: B1 VL 2 with P49S, A57T
notes: also called WT one-cell; one-cell WT
- Kd [2]: 19.9 nM and 21.3 nM
- koff [2]: 0.0516 s⁻¹ and 0.0498 s⁻¹
- kon [2]: 2.59e+06 M⁻¹ s⁻¹ and 2.34e+06 M⁻¹ s⁻¹
- Kd [3]: 20.6 nM

B5: hu20A12.SNVv12 Fab (Fab, V domains shown)
VH: B1 VH 1 with E39Q
VL: DIQMTQSPSTLSASVGDRVTITCQASESITRYLNWYQQKPGKAPKLLIYDASKLPSGVPSRFSGSGSGTEFTLTISSLQPDDFATYYCQSTSFRGRSYSNVFGGGTKVEIKR
- Kd [6]: 0.0195 nM
- koff [6]: 4.26e-05 s⁻¹
- kon [6]: 2.18e+06 M⁻¹ s⁻¹

B6: LY6G6D TDB assembled using a one-cell system comprising the anti-LY6G6D 20A12.QNTv12 arm (one-cell) and the anti-CD3 38E4v1 MD1 arm (bispecific antibody, V domains shown)
VH 1: B1 VH 1
VL 1: B1 VL 1
VH 2: B1 VH 2
VL 2: B1 VL 2 with K61E, K95T
notes: also called 20A12.QNTv12.MD1/38E4v1; MD1 one-cell
- Kd [1]: 1.9 nM
- koff [1]: 0.000796 s⁻¹
- kon [1]: 420000 M⁻¹ s⁻¹
- Kd [2]: 32.8 nM and 32.4 nM
- koff [2]: 0.0504 s⁻¹ and 0.0456 s⁻¹
- kon [2]: 1.54e+06 M⁻¹ s⁻¹ and 1.41e+06 M⁻¹ s⁻¹
- Kd [3]: 32.6 nM

B9: 1G4 Fab (Fab, V domains shown)
VH: EVQLVQSGAEVKKPGASVKVSCKASGYTFTTYVMHWVRQAPGQGLEWMGYINPYNDGTKYNEKFKGRVTMTRDTSISTAYMELSRLRSDDTAVYYCGRRNFDYWGQGTLVTVSS
VL: DIVMTQSPDSLAVSLGERATINCKSSQSLLLSGNQENYLAWHQQKPGQPPKTLITWASTRISGVPDRFSGSGSGTDFTLTISSLQAEDVAVYYCQQSYSAPYTFGGGTKVEIKR
notes: also called Fab of 1G4
- binding result [14]: binds

The next lines start with results.

- Kd [4]: 0.14 nM
- binding result [5]: binds
- Kd [6]: 0.136 nM
- koff [6]: 0.000227 s⁻¹
- kon [6]: 1.67e+06 M⁻¹ s⁻¹
B2: hu20A12.QNTv12 Fab (Fab, V domains shown)
VH: B1 VH 1 with E39Q
VL: B5 VL with S99Q, V101T

- Kd [7]: 16.3 nM
- koff [7]: 0.00886 s⁻¹
- kon [7]: 544000 M⁻¹ s⁻¹
B3: LY6G6D TDB comprising the anti-LY6G6D 1G4 arm and the anti-CD3 38E4.v1 arm (bispecific antibody, V domains shown)
VH 1: B9 VH
VL 1: DIVMTQSPDSLAVSLGERATINCKSSQSLLLSGNQENYLAWHQQKPGQPPKTLITWASTRISGVPDRFSGSGSGTDFTLTISSLQAEDVAVYYCQQSYSAPYTFGGGTKVEIK
VH 2: B1 VH 2 with K39Q
VL 2: B1 VL 2 with E44Q, P49S, A57T
notes: also called 1G4/38E4v1

- average CD8+T cell activation EC50 [8]: ~87 ng/ml and ~583 pM
- Kd [9]: 2.02 nM
- Kd [10]: 20 nM
- Kd [11]: 15 nM
- Kd [12]: 2.02 nM
- koff [12]: 0.000444 s⁻¹
- kon [12]: 220000 M⁻¹ s⁻¹
- Kd [1]: 1.39 nM
- koff [1]: 0.000416 s⁻¹
- kon [1]: 299000 M⁻¹ s⁻¹
- Kd [2]: 17.6 nM and 21.9 nM
- koff [2]: 0.0429 s⁻¹ and 0.0486 s⁻¹
- kon [2]: 2.44e+06 M⁻¹ s⁻¹ and 2.22e+06 M⁻¹ s⁻¹
- Kd [3]: 19.8 nM
B7: LY6G6D TDB comprising the anti-LY6G6D 20A12.QNTv12 arm (two-cell) and the anti-CD3 38E4v1 arm (bispecific antibody, V domains shown)
VH 1: B1 VH 1 with E39Q
VL 1: B1 VL 1 with K38Q
VH 2: B1 VH 2 with K39Q
VL 2: B1 VL 2 with E44Q, P49S, A57T
notes: Full-length IgG1 kappa; also called hu20A12.QNTv12/38E4v1 TDB; 20A12.QNTv12/38E4v1
- average cell killing EC50 [8]: ~1.04 ng/ml and ~7 pM

- Kd [13]: 0.86 nM
B8: rb20A12.IA (C35I-C50A) chimeric Fab (Fab, V domains shown)
VH: QQQLEESGGDLVKPGASLTLTCTASGFDFVNNAMIWVRQAPGKGLEWIAALSFADNTAYYATWASGRFTISKISSTTVTLRMTSLTGADTATYFCMRGDLWGPGTLVTVSS
VL: DIVMTQTPSSVSAAVGGTVTINCQASESITRYLNWYQQKPGQPPKLLIYDASKLPSGVPSRFKGSGSGTQFTLTTSDLECADAATYYCQSTSFRGRSYNNTFGGGTEVVVK
notes: also called rabbit 20A12 comprising C35I and C50A (IA) mutations
